Data set [1] deals with Cfr42I restriction endonuclease (Citrobacter freundii RFL42). Kind of data set: AUC.
Data set [2] concerns the target T1, Cfr42I restriction endonuclease (Citrobacter freundii RFL42, UniProt B0LL99 1-216).
T1 sequence: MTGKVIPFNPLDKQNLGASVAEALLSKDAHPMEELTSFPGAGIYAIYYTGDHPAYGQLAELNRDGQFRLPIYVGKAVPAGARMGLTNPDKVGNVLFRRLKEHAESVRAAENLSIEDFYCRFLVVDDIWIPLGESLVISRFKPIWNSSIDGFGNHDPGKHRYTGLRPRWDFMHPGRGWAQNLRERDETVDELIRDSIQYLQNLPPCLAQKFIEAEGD
Kind of data set: EMSA. In general terms: Mobility shift assays separate free from complexed probe on a gel.

The target of data set [3] is T1, Cfr42I restriction endonuclease. Kind of data set: EMSA. This is another data set of the same source.

Experimental findings from article PMC2241918 are described below.

Where two headings read alike, the source gives them in different places.

As to “Cfr42I restriction endonuclease (enzyme)”, the stoichiometry N in data set [1] stood at 4.

B1: 16/16 (dsDNA)
DNA 1: CGCCACCGCGGTGGCG
DNA 2: CGCCACCGCGGTGGCG
Consider B1, for which, in data set [2], the binding result is listed as “binds”.

B2: 30/30 (dsDNA)
DNA 1: AGACCCACGCCACCGCGGTGGAGATTACGG
DNA 2: CCGTAATCTCCACCGCGGTGGCGTGGGTCT
Take B2: the binding result in data set [3] is recorded as “binds”.

By stoichiometry N is commonly meant the number of molecules, sites or subunits per partner or assembly.
